From patent US20090175881A1 (SCHERING, published 2009)
Numbering of substitutions follows the chain as printed.

T1: rhIL-17A (human, UniProt Q16552 24-155)
T1 sequence: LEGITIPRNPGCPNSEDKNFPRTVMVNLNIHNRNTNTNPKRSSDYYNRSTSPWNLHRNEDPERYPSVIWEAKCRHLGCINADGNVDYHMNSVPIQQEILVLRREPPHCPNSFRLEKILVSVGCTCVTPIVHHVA

T2: native human IL-17A (human, UniProt Q16552 24-155)
T2 sequence: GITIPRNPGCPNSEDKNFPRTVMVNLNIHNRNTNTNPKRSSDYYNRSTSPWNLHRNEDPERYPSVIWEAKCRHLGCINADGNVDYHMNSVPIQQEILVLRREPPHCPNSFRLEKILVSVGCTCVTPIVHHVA

T3: cynomolgus monkey IL-17A (cynomolgus monkey, UniProt A0A2K5TTB0 24-155)
T3 sequence: T2 sequence with T3A, P8S, N34S, I77V, N78K, P104R

T4: FLAG-huIL-17A (human, UniProt Q16552 24-155)
T4 construct: also called FLAG-huL-17A; FLAG-IL-17A
T4 sequence: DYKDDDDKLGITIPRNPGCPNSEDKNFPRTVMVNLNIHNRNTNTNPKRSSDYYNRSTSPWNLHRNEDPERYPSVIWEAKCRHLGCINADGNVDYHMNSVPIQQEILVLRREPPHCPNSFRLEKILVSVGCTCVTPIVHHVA

T5: mouse IL-17A (mouse, UniProt Q62386 26-158, limits assumed)
T5 construct: also called mu IL-17A; mu IL-17
T5 sequence (looked up): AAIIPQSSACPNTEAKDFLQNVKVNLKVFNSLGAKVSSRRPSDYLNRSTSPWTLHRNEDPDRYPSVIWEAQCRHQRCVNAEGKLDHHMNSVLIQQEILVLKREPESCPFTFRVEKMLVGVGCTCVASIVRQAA

T6: FLAG-tagged human IL-17F (human, UniProt Q96PD4 31-163, limits assumed)
T6 construct: also called intact IL-17F
T6 sequence: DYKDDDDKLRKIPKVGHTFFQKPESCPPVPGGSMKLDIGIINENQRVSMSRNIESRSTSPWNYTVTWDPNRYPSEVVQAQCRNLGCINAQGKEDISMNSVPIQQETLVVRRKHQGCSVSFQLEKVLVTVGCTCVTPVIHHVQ

T7: FLAG-tagged mouse IL-17A (mouse, UniProt Q62386 26-158, limits assumed)
T7 construct: also called mIL-17A; intact mIL-17A
T7 sequence: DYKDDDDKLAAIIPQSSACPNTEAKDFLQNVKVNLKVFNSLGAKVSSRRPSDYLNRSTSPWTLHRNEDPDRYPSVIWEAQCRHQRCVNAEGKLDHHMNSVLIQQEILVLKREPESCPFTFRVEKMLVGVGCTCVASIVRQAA

B1: rat 1D10 (antibody, V domains shown)
VH: QVQLKESGPGLVQPSQTLSLTCTVSGFSLTNYYVHWVRQPPGKGLEWMGGVWNDGDTSYNSVLRSRLSITRDTSKSQVLLKMSSLQTEDTATYYCAREGREGFVGYYVMDAWGPGASVTVSS
VL: DIQMTQSPSFLSASVGERVTLSCKASQNINKYLDWFQQKLGEAPKLLIYNADNLHTGIPSRFSGSGSFSDFILTISSLQPEDDATYFCLQRESWPYTFGAGTKLELKR
notes: Parental rat monoclonal antibody; also called ID10; anti-IL-17A antibody 1D10
B2: rat 16C10 (antibody, rat IgG1, V domains shown)
VH: QVELRESGPGLVQPSQTLSLTCTVSGFSLPSHSVSWIRQPPGKGLEWMGIIWNNGGTDYNSAFKSRLTISRDTSKSQVFLKMNSLQTEDTAMYFCARNMYITDYYYENYFMDAWGQGASVTVSS
VL: DIVMTQSPSSLAVSIGETVTLNCKSSQSLLFSENQKNYLAWYQHKSGQSPKLLVYWTSTRQSGVPDRFMGSGSGTDFTLTISSVQAEDLAIYYCQQSYYTPYTFGAGTKLELKR
notes: also called 16C10C; antibody 16C10
B3: rat 23E12 (antibody, V domains shown)
VH: QVQLKESGPGLVQPSQTLSLTCTVFGFSLTNNGVTWVRQPPGKGLEWIAEVSSGGSTDYNSALKSRLSISRDTSKSQVFLRMNSLQTEDTAIYFCARQEVFTGLLDYWGQGVMVTVSS
VL: DIQMTQSPASLSASLGETVTIQCQASEDIYSGLAWYHQKPGKSPQLLILGASRLHDGVPSRFSGSGSGIEYSLKINNMQTEDEGIYFCQQGLKYPPTFGGGTKLELKR
notes: Parental rat monoclonal antibody (hybridoma PTA-7740)

Experiments:
rhIL-17A [1] = biological target: T1, rhIL-17A; assay: cell-based or functional assay
native human IL-17A [2] = biological target: T2, native human IL-17A; assay: cell-based or functional assay
cynomolgus monkey IL-17A [3] = biological target: T3, cynomolgus monkey IL-17A; assay: cell-based or functional assay
rhIL-17A [4] = biological target: T1, rhIL-17A; assay: cell-based or functional assay; remark: listed apart in the source
native human IL-17A [5] = biological target: T2, native human IL-17A; assay: cell-based or functional assay; remark: listed apart in the source
cynomolgus monkey IL-17A [6] = biological target: T3, cynomolgus monkey IL-17A; assay: cell-based or functional assay; remark: listed apart in the source
rhIL-17A [7] = biological target: T1, rhIL-17A; assay: cell-based or functional assay; remark: listed apart in the source
cynomolgus monkey IL-17A [8] = biological target: T3, cynomolgus monkey IL-17A; assay: cell-based or functional assay; remark: listed apart in the source
rhIL-17A [9] = biological target: T1, rhIL-17A; assay: cell-based or functional assay; remark: listed apart in the source
rhIL-17A [10] = biological target: T1, rhIL-17A; assay: cell-based or functional assay; remark: listed apart in the source
cynomolgus monkey IL-17A [11] = biological target: T3, cynomolgus monkey IL-17A; assay: cell-based or functional assay; remark: listed apart in the source
FLAG-huIL-17A [12] = biological target: T4, FLAG-huIL-17A; assay: KinExA, solution equilibrium
Procedure: (§1) The equilibrium dissociation constants (Kd) for anti human IL-17A antibodies were determined using the KinExA 3000 instrument (Sapidyne Instruments Inc., Boise, Id., USA). KinExA uses the principle of the Kinetic Exclusion Assay method based on measuring the concentration of uncomplexed antibody in a mixture of antibody, antigen and antibody-antigen complex. […] The concentration of free antibody is measured by exposing the mixture to a solid-phase immobilized antigen for a very brief period of time. l practice, this is accomplished by flowing the solution phase antigen-antibody mixture past antigen-coated particles trapped in a flow cell. Data generated by the instrument are analyzed using custom software.
(§2) IL-17A was derived from either human (“hu”), cynomolgus monkey (“cyno”), or mouse (“mu”). IL-17A from the same species was used in both the immobilized and solution phases for each KinExA determination. Poly(methyl-methacrylate) (PMMA) particles (98 micron) were coated with human, cyno or mouse IL-17A according to Sapidyne “Protocol for coating PMMA particles with biotinylated ligands having short or nonexistent linker arms.” All experimental procedures were done according to the KinExA 3000 manual. All runs were done in duplicate.
(§3) Two-fold serial dilutions of the antigen were prepared and mixed with the antibody at constant concentration. The mixture was incubated for 2 hours at 25° C. to equilibrate.

cynomolgus monkey IL-17A [13] = biological target: T3, cynomolgus monkey IL-17A; assay: KinExA, solution equilibrium
Procedure: as §1, §2, §3

mouse IL-17A [14] = biological target: T5, mouse IL-17A; assay: KinExA, solution equilibrium
Procedure: as §1, §2, §3

cynomolgus monkey IL-17A [15] = biological target: T3, cynomolgus monkey IL-17A; assay: ECL (Origen); area under the curve
Source text: (§4) Origen electrochemiluminescence technology, developed by IGEN, Inc. (Gaithersburg, Md., USA), and was employed to measure the binding of rat anti-human IL-17A antibodies (and one chimeric antibody) to FLAG-huL-17A. […] Electrochemiluminescence technology uses a stable ruthenium metal chelate (Ori-TAG) which, in the presence of tripropylamine (TPA), generates electrochemiluminescence upon voltage application. Paramagnetic beads, microns in diameter, act as the solid phase and facilitate rapid assay kinetics. The bead/complex is channeled through a flow cell and captured at an electrode by magnetic application. Voltage is applied and resulting electrochemiluminescence is measured.
(§5) ECL assays were performed as follows. Three-fold serial dilutions of anti-human IL-17A mAbs in 50 μl of the assay buffer were made in a 96-well microtiter plate to give 1-3 μg/ml final concentration in the first well. […] Finally 50 μl of Origen Streptavidin-Dynabeads at 0.1 mg/ml was added to each well. […] GraphPad Prism software (GraphPad Software, San Diego, Calif., USA) was used to plot the data and calculate area under the curve, which is a rough measure of binding.

mouse IL-17A [16] = biological target: T5, mouse IL-17A; assay: ECL (Origen); area under the curve
Source text: as §4, §5

FLAG-huIL-17A [17] = biological target: T4, FLAG-huIL-17A; assay: ECL (Origen), antibody titrated against biotinylated antigen; area under the curve
Source text: as §4, §5

FLAG-tagged human IL-17F = biological target: T6, FLAG-tagged human IL-17F; assay: AlphaScreen
Procedure: Each of these three proteins was linked to an N-terminal FLAG® peptide tag (see residues 1 to 9 of SEQ ID NO.: 42). […] Donor and acceptor beads were mixed, illuminated at 680 nm, and emission was measured at 520-620 nm.

mouse IL-17A [18] = biological target: T5, mouse IL-17A; assay: ECL (Origen)
Procedure: as §5

rhIL-17A [19] = biological target: T1, rhIL-17A; assay: KinExA, solution equilibrium
Procedure: as §1, §2, §3

FLAG-tagged mouse IL-17A = biological target: T7, FLAG-tagged mouse IL-17A; assay: observation on which Example 19 is based
rhIL-17A [20] = biological target: T1, rhIL-17A; assay: indirect ELISA, rhIL-17A coated on plate
Procedure: Binding of anti-human-IL-17A monoclonal antibodies to rhIL-17A is assessed using an indirect enzyme-linked immunosorbent assay (ELISA). Briefly, a fixed concentration of rhIL-17A is bound directly to the wells of a microtiter plate. The monoclonal anti-IL-17A to be assayed is then is added to the rhIL-17A coated plate, where the antibody is captured and quantitated.
A 96-well U-bottom MaxiSorp plate is coated with 50 μl/well of rhIL-17A (0.5 μg/ml) in carbonate coating buffer (the “assay plate”). Carbonate coating buffer is 2.9 g/L NaHFCO₃, 1.6 g/L Na₂CO₃, pH 9.4. Plates are incubated covered at 4° C. overnight. Monoclonal antibodies to be screened are serially diluted in duplicate across the rows of a V-bottom plate such that the final volume is 60 μl/well (the “serial dilution plate”). The assay plate is washed three times with PBS-Tween in a plate washer (SkanWasher, Molecular Devices, Sunnyvale, Calif., USA) and blotted dry. PBS-Tween is obtained by adding 0.5 ml/L Tween 20 to 1×PBS. Fifty μl from each well of the serial dilution plate is transferred to the assay plate and incubated at 25° C. for one hour. Secondary antibodies are diluted 1/2000 in diluent (PBS-BSA-Tween, which is PBS-Tween with 1 g/L BSA). The secondary antibody for rat monoclonal antibodies is goat anti-rat IgG (H+L)—HRP (Jackson ImmunoResearch Laboratories, Inc., West Grove, Pa., USA). The secondary antibody for chimeric and humanized monoclonal antibodies is F(ab′)₂ goat anti-human IgG Fcγ—HRP (Jackson ImmunoResearch Laboratories, Inc.). The assay plate is washed as before. Diluted secondary antibodies (100 μl/well) are added to the appropriate wells in the assay plate, and the plate is incubated at 25° C. for 45 minutes. The assay plate is washed as before.

| Binder | IC50, synoviocyte IL-6 production, rhIL-17A (30 ng/ml) (rhIL-17A [1]) [ng/mL] | IC50, synoviocyte IL-6 production, NHP IL-17A (30 ng/ml) (cynomolgus monkey IL-17A [3]) [ng/mL] | IC50, synoviocyte IL-8 production, rhIL-17A (30 ng/ml) (rhIL-17A [4]) [ng/mL] | IC50, synoviocyte IL-8 production, NHP IL-17A (30 ng/ml) (cynomolgus monkey IL-17A [6]) [ng/mL] | IC50, inhibition of IL-6 production in NHDF cells, rhIL-17A (rhIL-17A [7]) [nM] | IC50, inhibition of IL-6 production in NHDF cells, cyno IL-17A (cynomolgus monkey IL-17A [8]) [nM] | IC50, foreskin fibroblast (HS68) assay, rhIL-17A-induced IL-6 (rhIL-17A [9]) [pM] | IC50, Ba/F3 hIL-17Rc-mGCSFR proliferation assay, IL-17A at 276 pM (rhIL-17A [10]) [pM] | IC50, Ba/F3 hIL-17Rc-mGCSFR proliferation assay, IL-17A at 100 pM (cynomolgus monkey IL-17A [11]) [pM] | Kd (FLAG-huIL-17A [12]) [pM] | Kd (cynomolgus monkey IL-17A [13]) [pM] | Kd (mouse IL-17A [14]) [nM] | Area Under Peak (cynomolgus monkey IL-17A [15]) | Area Under Peak (mouse IL-17A [16]) | Area Under Peak (FLAG-huIL-17A [17]) | further results |
| --- | --- | --- | --- | --- | --- | --- | --- | --- | --- | --- | --- | --- | --- | --- | --- | --- |
| B1 | 105 | 65 | 59 | 38 | 1 | 0.4 | 65 | 223 | 19 | 1.7 | 9.8 | 0.0103 | 136000 | 252000 | 477000 | IC50, synoviocyte IL-6 production, Native huIL-17A (10 ng/ml) (native human IL-17A [2]): 25 ng/mL; IC50, synoviocyte IL-8 production, Native huIL-17A (10 ng/ml) (native human IL-17A [5]): 40 ng/mL |
| B2 | 63 | 60 | 38 | 33 | 0.5 | 0.2 | 67 | 162 | 27 | 3.6 | 1.7 |  | 152000 |  | 286000 | binding result (FLAG-tagged human IL-17F): no binding; binding result (mouse IL-17A [18]): no binding (tested: 1-3 µg/ml antibody in the first well); IC50, Ba/F3 hIL-17Rc-mGCSFR proliferation assay, IL-17A at 100 pM (rhIL-17A [10]): 20 pM; Kd (rhIL-17A [19]): 6 pM; binding result (FLAG-tagged mouse IL-17A): no binding; EC50 (rhIL-17A [20]): 0.274 nM |
| B3 |  |  |  |  | 1 | 0.3 | 126 |  |  | 2.8 | 28 | 7 | 111000 | 143000 | 285000 |  |
